From patent US8993255B2, “Protein having fructosyl valyl histidine oxidase activity, modified protein, and use of the protein or the modified protein” (Toyo Boseki Kabushiki Kaisha, priority 2008, dated 2015)

Legend:
[1] = tested on: CC(C)[C@H](NCC1(O)OC[C@@H](O)[C@@H](O)[C@@H]1O)C(=O)N[C@@H](Cc1c[nH]cn1)C(=O)O; assay: purified protein, by the assay type; conditions: other: IE353, F-VH 0.18-1.75 mM, 37° C., MES pH 6.5, peroxidase-coupled, Lineweaver-Burk plot
Experimental: The reaction was conducted at 37° C. for 5 minutes, and then a change in the absorbance at 500 nm (ΔODtest/min) was measured. Meanwhile, a blank test was conducted by adding, instead of the enzyme solution, 0.1 ml of enzyme diluent to the activity measuring reagent, and then measuring a change in the absorbance at 500 nm (ΔODblank/min) in the same way. The enzyme activity was calculated from the changes in absorbance on the basis of the following formula, and is described by unit (U) where an amount of enzyme that oxidizes 1 micromole of substrate in one minute under the above-described condition is 1 unit (U). —Formula— Activity value(U/ml)={ΔOD/min(ΔODtest−ΔODblank)×3.1(ml)×dilution magnification}/{13×1.0(cm)×0.1(ml)}. In the above formula, • “3.1 (ml)” is the whole liquid quantity; • “13” is a millimolar absorbance index; • “1.0 (cm)” is an optical length of a cell; and • “0.1 (ml)” is the enzyme sample quantity. […]

[2] = substrate: CC(C)[C@H](NCC1(O)OC[C@@H](O)[C@@H](O)[C@@H]1O)C(=O)N[C@@H](Cc1c[nH]cn1)C(=O)O; assay: Km value to F-VH (Lineweaver-Burk plot); format: biochemical, Coniochaeta sp.; conditions: other: FPOX-CE, F-VH 0.18-1.75 mM, 37° C., MES pH 6.5, peroxidase-coupled
Experimental: (§1) The chemical compounds used in the present examples were purchased from NACALAI TESQUE, INC. unless otherwise particularly stated.
(§2) The following describes an activity measurement method of the following examples 1 through 3.
(§3) An enzyme activity to a substrate was measured by an increase in absorbance of a pigment as a result of peroxidase reaction involving hydrogen peroxide generated by enzyme reaction. First, 3 ml of activity measuring reagent was heated at 37° C. for 5 minutes, and then 0.1 ml of enzyme solution diluted in advance by an enzyme diluent (a 50 mM potassium phosphate buffer (pH 7.5)) was added to the activity measuring reagent, thereby starting the reaction.
(§4) The reaction was conducted at 37° C. for 5 minutes, and then a change in the absorbance at 500 nm (ΔODtest/min) was measured. Meanwhile, a blank test was conducted by adding, instead of the enzyme solution, 0.1 ml of enzyme diluent to the activity measuring reagent, and then measuring a change in the absorbance at 500 nm (ΔODblank/min) in the same way. […] In the above formula, • “3.1 (ml)” is the whole liquid quantity; • “13” is a millimolar absorbance index; • “1.0 (cm)” is an optical length of a cell; and • “0.1 (ml)” is the enzyme sample quantity.
(§5) The Km value to F-VH was worked out as follows. […] Subsequently, activities in the samples were measured by the above-described activity measurement method. […]

[3] = substrate: CC(C)[C@H](NCC1(O)OC[C@@H](O)[C@@H](O)[C@@H]1O)C(=O)N[C@@H](Cc1c[nH]cn1)C(=O)O; assay: Km value to F-VH (Lineweaver-Burk plot); format: biochemical, E. terrenum; conditions: other: FPOX-EE, F-VH 0.18-1.75 mM, 37° C., MES pH 6.5, peroxidase-coupled
Experimental: as §1, §2, §3, §4, §5

For “Phaeosphaeria nodorum fructosyl valyl histidine oxidase IE353, wild type, SEQ ID NO: 1 (Parastagonospora nodorum SN15)”, the Km [1] was 500 µM.

B1: FPOX-CE (Coniochaeta sp.), conventional enzyme manufactured by KIKKOMAM Corporation (Coniochaeta sp. NISL 9330) (protein)
chain: MTSNRADTRVIVVGGGGTIGSSTALHLVRSGYAPANITVLDTFEIPSAQSAGHDLNKIMGIRLRNKVDLQMSLEARQMWKEDELFQPFFHNTGRMDCEHTPEGIEDLKKQYQALHDAGAGLEKTHAWLDNEDEILSKMPLLQRDQIQGWKAIWSQDGGWLAAAKAINAIGQFLKERGVKFGFGGAGSFKQPLFDDEGTTCIGVETADGTKYYADKVVLAAGAWSPTLVDLEDQCCSKAWVYAHIQLTPEEAAEYKGVPVVYNGEFGFFFEPNEFGVIKVCDEFPGFSRFKEHQPYGAPSPKHISVPRSHAKHPTDTYPDASEVSIKKAIATFLPRFQDKELFNRALCWCTDTADAALLMCEHPKWKNFILATGDSGHSFKILPNVGKHVVELIEGRLPEEMAYQWRWRPGGDALKSRRAAPPKDLADMPGWKHDPKL
With B1 the Km [2] was 1000 µM.

B2: FPOX-EE (E. terrenum), conventional enzyme manufactured by KIKKOMAM Corporation (Penicillium terrenum) (protein)
chain: MAHSRASTKVVVVGGGGTIGSSTALHLIRSGYTPSNITVLDVYKTPSLQSAGHDLNKIMGIRLRNGPDLQLSLESLDMWQNDELFKPFFHQVGMIDCSSSKEGIENLRRKYQTLLDAGIGLEKTNVWLESEDEILAKAPNFTREQVKGWKGLFCTDGGWLAAAKAINAIGIFLQDKGVKFGFGGAGTFQQPLFAADGKTCIGLETTDGTKYFADKVVLAAGAWSPTLVDLEDQCVSKAWVFAHIQLTPKEADAYKNVPVVYDGEYGFFFEPNEYGVIKVCDEFPGFSRFKLHQPYGAASPKMISVPRSHAKHPTDTYPDASEVTIRKAIARFLPEFKDKELFNRTMCWCTDTADANLLICEHPKWKNFILATGDSGHSFKLLPNIGKHVVELLEGSLSQEMAGAWRWRPGGDALRSRRGAPAKDLAEMPGWKHDAHL
With B2 the Km [3] was 1000 µM.
